Data from publication PMC11044963, “Probing the CRL4^DCAF12 interactions with MAGEA3 and CCT5 di-Glu C-terminal degrons” (PNAS Nexus, 2024).

Experiments:
DCAF12 = test: NanoBRET with full-length proteins, DCAF12; format: cell-based, human; conditions: HEK293T cells; FL protein
Text: To further investigate the DCAF12 interaction with MAGEA3 and CCT5 in cells, we developed a NanoBRET assay, which measures the interaction of […] FL MEAGEA3/CCT5 or C-terminal peptide containing degron sequences ([…]/[…], respectively). When donor and acceptor proteins are in close proximity, the donor excites the acceptor, which then emits fluorescence, allowing for direct measurement of protein–protein interaction in cells.
(§1) HEK293T cells were plated in 96-well plates (2 × 10^4/well) and 4 h later transfected with 0.03 µg/well N-terminally HT-tagged DCAF12 (WT or mutants) or HT alone and 0.001 µg/well N-terminally NL-tagged CCT5 and MAGEA3 (FL or -EE degrons) using X-tremeGene HP transfection reagent (Roche), following the manufacturer's instructions. […] Four hours later, 10 µL of NanoBRET Nano-Glo Substrate solution (8 µL/mL Nano-Glo substrate (Promega) diluted in DMEM/F12 no phenol red, supplemented with 4% FBS, penicillin 100 U/mL, and streptomycin 100 µg/mL) was added, and the signal was read. Donor emission at 450 nm (filter: 450 nm/BP 80 nm) and acceptor emission at 618 nm (filter: 610 nm/LP) were measured within 10 min of substrate addition using CLARIOstar microplate reader (Mandel). […]

[1] = tested on: DCAF12 mutants K91A, K108A, R203A, R256A, R344A; test: NanoBRET with full-length proteins, DCAF12 mutants; format: cell-based, human; conditions: HEK293T cells; FL protein; all DCAF12 mutations vs WT
Text: Fig. 2. Conserved arginine and lysine residues near DCAF12 central channel participate in MAGEA3 binding in cells. A) DCAF12 electrostatic surface potential analysis showing negatively and positively charged residues colored in red and blue, respectively. On the left, DDB1 contacting surface of DCAF12. On the right, substrate contacting surface with positively charged residues—Arg203, Arg256, and Arg344—highlighted as sticks. Electrostatic potential is shown on a scale of −10 (red) kT/e to 10 (blue). B) Conservation analysis of DCAF12 showing high conservation of the same positively charged residues (represented as sticks) among homologous sequences. Residues were colored on a scale from variable/low conservation (dark teal) to high conservation (magenta). […]
as §1, with “read.” for “read. Donor emission at 450 nm (filter: 450 nm/BP 80 nm) and acceptor emission at 618 nm (filter: 610 nm/LP) were measured within 10 min of substrate addition using CLARIOstar microplate reader (Mandel).”

B1: MAGEA3-FL: full-length melanoma-associated antigen 3 protein (protein)
chain: MPLEQRSQHCKPEEGLEARGEALGLVGAQAPATEEQEAASSSSTLVEVTLGEVPAAESPDPPQSPQGASSLPTTMNYPLWSQSYEDSSNQEEEGPSTFPDLESEFQAALSRKVAELVHFLLLKYRAREPVTKAEMLGSVVGNWQYFFPVIFSKASSSLQLVFGIELMEVDPIGHLYIFATCLGLSYDGLLGDNQIMPKAGLLIIVLAIIAREGDCAPEEKIWEELSVLEVFEGREDSILGDPKKLLTQHFVQENYLEYRQVPGSDPACYEFLWGPRALVETSYVKVLHHMVKISGGPHISYPPLHEWVLREGEE
modifications: left off: NanoLuc, N-terminal, kept
notes: full-length melanoma-associated antigen 3 protein
BRET signal over negative control (DCAF12): 22 fold | decrease of DCAF12 interaction by mutations, NanoBRET [1]: over 50%
